Reference: IntAct's records for PubMed 17721439

Tests used:
[1] = molecular target: wnk4_human WNK4 (UniProt Q96J92)
[2] = molecular target: wnk1_human WNK1 (UniProt Q9H4A3)
[3] = molecular target: SLC12A2 (UniProt P55011)
[4] = molecular target: wnk4_human WNK4 (UniProt Q96J92); remark: listed apart in the source
[5] = molecular target: wnk4_human WNK4 (UniProt Q96J92); remark: listed apart in the source
[6] = molecular target: wnk4_human WNK4 (UniProt Q96J92); remark: listed apart in the source
[7] = molecular target: wnk4_human WNK4 (UniProt Q96J92); remark: listed apart in the source
[8] = molecular target: wnk4_human WNK4 (UniProt Q96J92); remark: listed apart in the source
[9] = molecular target: wnk4_human WNK4 (UniProt Q96J92); remark: listed apart in the source
[10] = molecular target: wnk4_human WNK4 (UniProt Q96J92); remark: listed apart in the source
[11] = molecular target: wnk4_human WNK4 (UniProt Q96J92); remark: listed apart in the source
[12] = molecular target: wnk1_human WNK1 (UniProt Q9H4A3); remark: listed apart in the source
[13] = molecular target: SLC12A2 (UniProt P55011); remark: listed apart in the source

Chain of Serine/threonine-protein kinase OSR1 (Homo sapiens), O95747 L473A (O95747 whole entry L473A): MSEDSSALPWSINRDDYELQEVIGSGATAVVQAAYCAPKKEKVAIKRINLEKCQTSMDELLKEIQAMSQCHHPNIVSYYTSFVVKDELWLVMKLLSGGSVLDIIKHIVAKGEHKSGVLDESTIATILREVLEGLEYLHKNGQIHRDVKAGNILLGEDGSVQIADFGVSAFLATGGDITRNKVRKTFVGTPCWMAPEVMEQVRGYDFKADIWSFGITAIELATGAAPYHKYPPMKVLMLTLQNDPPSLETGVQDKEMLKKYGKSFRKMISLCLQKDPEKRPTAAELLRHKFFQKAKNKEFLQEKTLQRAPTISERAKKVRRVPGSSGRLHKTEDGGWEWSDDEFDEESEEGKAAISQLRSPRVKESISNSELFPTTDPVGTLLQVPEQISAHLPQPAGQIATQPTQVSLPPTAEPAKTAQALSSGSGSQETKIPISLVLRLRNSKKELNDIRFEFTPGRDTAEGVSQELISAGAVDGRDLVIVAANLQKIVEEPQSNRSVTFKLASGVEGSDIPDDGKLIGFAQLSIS
Chain of Serine/threonine-protein kinase OSR1 (Homo sapiens), O95747 D459A (O95747 whole entry D459A): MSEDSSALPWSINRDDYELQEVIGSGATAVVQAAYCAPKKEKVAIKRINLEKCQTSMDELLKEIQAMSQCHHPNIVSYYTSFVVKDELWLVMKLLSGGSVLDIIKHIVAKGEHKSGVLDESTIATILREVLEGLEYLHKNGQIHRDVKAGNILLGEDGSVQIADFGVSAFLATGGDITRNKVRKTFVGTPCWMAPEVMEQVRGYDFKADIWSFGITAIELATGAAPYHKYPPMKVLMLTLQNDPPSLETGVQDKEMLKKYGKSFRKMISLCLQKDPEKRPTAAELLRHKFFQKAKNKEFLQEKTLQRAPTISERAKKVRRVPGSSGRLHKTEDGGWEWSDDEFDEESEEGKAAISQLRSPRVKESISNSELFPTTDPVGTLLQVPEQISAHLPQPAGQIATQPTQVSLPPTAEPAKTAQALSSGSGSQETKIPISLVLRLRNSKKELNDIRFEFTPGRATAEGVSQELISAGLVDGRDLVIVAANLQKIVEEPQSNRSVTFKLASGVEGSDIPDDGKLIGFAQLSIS
Chain of wnk4_human WNK4 (Q96J92 whole entry): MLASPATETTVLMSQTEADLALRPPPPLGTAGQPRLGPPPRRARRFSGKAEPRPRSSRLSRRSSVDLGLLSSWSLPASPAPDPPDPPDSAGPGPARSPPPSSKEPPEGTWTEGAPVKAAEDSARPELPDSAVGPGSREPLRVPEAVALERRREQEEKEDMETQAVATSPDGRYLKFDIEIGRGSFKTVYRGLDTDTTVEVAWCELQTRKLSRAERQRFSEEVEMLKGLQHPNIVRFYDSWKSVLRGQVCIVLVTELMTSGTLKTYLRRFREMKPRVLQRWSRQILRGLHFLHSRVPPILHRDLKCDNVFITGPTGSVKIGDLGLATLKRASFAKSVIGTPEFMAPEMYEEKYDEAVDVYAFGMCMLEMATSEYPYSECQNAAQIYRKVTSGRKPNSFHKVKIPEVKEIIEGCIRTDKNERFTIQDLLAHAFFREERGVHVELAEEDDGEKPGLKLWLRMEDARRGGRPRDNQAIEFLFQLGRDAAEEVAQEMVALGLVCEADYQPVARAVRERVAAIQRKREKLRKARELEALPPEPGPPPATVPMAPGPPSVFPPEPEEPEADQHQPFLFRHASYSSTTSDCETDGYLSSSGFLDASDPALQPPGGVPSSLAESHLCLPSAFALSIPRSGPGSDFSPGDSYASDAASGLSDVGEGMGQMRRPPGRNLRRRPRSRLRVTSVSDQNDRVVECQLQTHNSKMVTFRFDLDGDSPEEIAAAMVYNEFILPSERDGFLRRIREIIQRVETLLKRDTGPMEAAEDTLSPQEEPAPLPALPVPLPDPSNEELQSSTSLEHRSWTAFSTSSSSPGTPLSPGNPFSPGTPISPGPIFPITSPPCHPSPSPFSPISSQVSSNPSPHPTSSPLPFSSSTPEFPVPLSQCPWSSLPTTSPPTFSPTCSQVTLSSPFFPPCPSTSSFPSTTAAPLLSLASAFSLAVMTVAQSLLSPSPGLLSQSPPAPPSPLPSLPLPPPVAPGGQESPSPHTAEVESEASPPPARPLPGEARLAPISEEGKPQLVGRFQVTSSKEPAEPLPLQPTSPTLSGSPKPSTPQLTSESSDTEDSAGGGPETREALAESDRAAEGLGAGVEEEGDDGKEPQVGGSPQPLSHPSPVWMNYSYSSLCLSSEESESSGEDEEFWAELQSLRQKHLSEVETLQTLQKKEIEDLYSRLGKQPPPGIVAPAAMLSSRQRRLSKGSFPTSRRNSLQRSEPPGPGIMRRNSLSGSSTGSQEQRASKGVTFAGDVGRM
Chain of SLC12A2 (P55011 whole entry): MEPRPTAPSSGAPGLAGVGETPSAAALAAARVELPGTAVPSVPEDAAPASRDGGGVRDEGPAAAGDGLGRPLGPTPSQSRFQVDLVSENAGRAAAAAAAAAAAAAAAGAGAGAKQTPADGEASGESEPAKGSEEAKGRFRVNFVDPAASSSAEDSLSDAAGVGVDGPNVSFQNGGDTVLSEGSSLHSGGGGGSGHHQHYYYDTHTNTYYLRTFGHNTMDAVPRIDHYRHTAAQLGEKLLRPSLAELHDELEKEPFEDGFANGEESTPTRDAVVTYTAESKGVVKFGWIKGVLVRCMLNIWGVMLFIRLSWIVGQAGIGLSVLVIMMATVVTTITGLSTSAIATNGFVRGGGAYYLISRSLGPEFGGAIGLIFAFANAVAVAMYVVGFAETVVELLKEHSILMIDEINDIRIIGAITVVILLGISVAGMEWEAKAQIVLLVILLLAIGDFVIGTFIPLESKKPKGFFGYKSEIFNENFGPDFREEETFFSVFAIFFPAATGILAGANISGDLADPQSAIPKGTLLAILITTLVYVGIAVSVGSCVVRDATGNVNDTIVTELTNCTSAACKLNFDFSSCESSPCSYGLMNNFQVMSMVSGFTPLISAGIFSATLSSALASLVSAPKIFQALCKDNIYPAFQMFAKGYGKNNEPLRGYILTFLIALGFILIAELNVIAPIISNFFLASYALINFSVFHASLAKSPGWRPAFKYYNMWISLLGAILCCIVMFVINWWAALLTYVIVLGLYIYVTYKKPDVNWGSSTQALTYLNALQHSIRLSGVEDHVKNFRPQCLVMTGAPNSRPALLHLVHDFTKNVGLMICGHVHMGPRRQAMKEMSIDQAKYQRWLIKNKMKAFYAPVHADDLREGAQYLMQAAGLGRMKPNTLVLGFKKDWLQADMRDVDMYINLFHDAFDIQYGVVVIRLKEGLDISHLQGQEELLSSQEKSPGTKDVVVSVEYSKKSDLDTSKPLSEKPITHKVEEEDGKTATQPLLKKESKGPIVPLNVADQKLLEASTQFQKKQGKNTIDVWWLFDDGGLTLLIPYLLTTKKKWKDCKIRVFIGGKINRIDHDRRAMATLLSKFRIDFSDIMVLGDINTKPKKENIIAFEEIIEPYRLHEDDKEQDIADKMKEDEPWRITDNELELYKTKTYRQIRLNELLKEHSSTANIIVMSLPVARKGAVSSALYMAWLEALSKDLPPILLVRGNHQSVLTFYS
Chain of Serine/threonine-protein kinase OSR1 (Homo sapiens), O95747 L468F (O95747 whole entry L468F): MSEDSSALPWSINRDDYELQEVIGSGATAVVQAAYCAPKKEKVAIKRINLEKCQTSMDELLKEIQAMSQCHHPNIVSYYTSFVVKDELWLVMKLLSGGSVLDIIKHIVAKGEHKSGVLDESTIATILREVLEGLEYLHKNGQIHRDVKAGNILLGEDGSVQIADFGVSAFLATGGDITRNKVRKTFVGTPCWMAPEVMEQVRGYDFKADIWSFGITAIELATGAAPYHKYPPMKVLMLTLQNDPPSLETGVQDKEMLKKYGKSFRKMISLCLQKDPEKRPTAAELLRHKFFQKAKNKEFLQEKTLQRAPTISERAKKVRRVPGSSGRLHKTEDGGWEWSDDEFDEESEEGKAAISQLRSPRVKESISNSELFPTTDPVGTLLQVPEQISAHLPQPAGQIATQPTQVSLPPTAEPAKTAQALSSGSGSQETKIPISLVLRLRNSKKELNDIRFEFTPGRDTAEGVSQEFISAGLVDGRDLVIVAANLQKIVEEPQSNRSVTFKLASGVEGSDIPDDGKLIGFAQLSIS
Chain of Serine/threonine-protein kinase OSR1 (Homo sapiens), O95747 E467A (O95747 whole entry E467A): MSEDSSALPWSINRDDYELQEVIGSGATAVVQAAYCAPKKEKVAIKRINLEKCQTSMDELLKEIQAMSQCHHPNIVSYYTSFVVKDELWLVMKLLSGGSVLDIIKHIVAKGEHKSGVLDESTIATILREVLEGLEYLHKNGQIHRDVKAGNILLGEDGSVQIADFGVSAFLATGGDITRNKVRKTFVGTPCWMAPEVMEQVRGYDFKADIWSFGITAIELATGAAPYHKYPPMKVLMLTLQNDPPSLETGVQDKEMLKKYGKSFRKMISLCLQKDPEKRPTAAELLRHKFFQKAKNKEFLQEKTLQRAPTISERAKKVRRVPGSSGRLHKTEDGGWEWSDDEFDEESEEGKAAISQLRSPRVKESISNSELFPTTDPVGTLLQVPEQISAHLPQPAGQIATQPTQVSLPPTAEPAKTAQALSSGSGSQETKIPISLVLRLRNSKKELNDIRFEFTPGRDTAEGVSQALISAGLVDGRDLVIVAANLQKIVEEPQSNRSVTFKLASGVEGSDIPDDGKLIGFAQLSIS

Substance: Serine/threonine-protein kinase OSR1 (Homo sapiens), O95747 L473A
- effect of a mutation on the interaction [1]: disrupting interaction
- effect of a mutation on the interaction [2]: disrupting interaction
- effect of a mutation on the interaction [3]: disrupting interaction

Substance: Serine/threonine-protein kinase OSR1 (Homo sapiens), O95747 D449A
- effect of a mutation on the interaction [4]: decreasing interaction

Substance: Serine/threonine-protein kinase OSR1 (Homo sapiens), O95747 A471L
- effect of a mutation on the interaction [5]: decreasing interaction

Substance: Serine/threonine-protein kinase OSR1 (Homo sapiens), O95747 E446A
- effect of a mutation on the interaction [6]: decreasing interaction

Substance: Serine/threonine-protein kinase OSR1 (Homo sapiens), O95747 E467A
- effect of a mutation on the interaction [7]: disrupting interaction

Substance: Serine/threonine-protein kinase OSR1 (Homo sapiens), O95747 L468F
- effect of a mutation on the interaction [8]: disrupting interaction

Substance: Serine/threonine-protein kinase OSR1 (Homo sapiens), O95747 R451A
- effect of a mutation on the interaction [9]: decreasing interaction

Substance: Serine/threonine-protein kinase OSR1 (Homo sapiens), O95747 I450A
- effect of a mutation on the interaction [10]: disrupting interaction

Substance: Serine/threonine-protein kinase OSR1 (Homo sapiens), O95747 D459A
- effect of a mutation on the interaction [11]: disrupting interaction
- effect of a mutation on the interaction [12]: disrupting interaction
- effect of a mutation on the interaction [13]: disrupting interaction
